Numbering of substitutions follows the chain as printed. Numbers in names are those of the source.
B1: VAL (ED polymerase): 9° N DM derivative with L408V; V409A; P410L (motif A VAL) plus A485L; SEQ ID NO: 18 (protein)
chain: MILDTDYITENGKPVIRVFKKENGEFKIEYDRTFEPYFYALLKDDSAIEDVKKVTAKRHGTVVKVKRAEKVQKKFLGRPIEVWKLYFNHPQDVPAIRDRIRAHPAVVDIYEYDIPFAKRYLIDKGLIPMEGDEELTMLAFAIATLYHEGEEFGTGPILMISYADGSEARVITWKKIDLPYVDVVSTEKEMIKRFLRVVREKDPDVLITYNGDNFDFAYLKKRCEELGIKFTLGRDGSEPKIQRMGDRFAVEVKGRIHFDLYPVIRRTINLPTYTLEAVYEAVFGKPKEKVYAEEIAQAWESGEGLERVARYSMEDAKVTYELGREFFPMEAQLSRLIGQSLWDVSRSSTGNLVEWFLLRKAYKRNELAPNKPDERELARRRGGYAGGYVKEPERGLWDNIVYLDFRSVALSIIITHNVSPDTLNREGCKEYDVAPEVGHKFCKDFPGFIPSLLGDLLEERQKIKRKMKATVDPLEKKLLDYRQRLIKILANSFYGYYGYAKARWYCKECAESVTAWGREYIEMVIRELEEKFGFKVLYADTDGLHATIPGADAETVKKKAKEFLKYINPKLPGLLELEYEGFYVRGFFVTKKKYAVIDEEGKITTRGLEIVRRDWSEIAKETQARVLEAILKHGDVEEAVRIVKEVTEKLSKYEVPPEKLVIHEQITRDLRDYKATGPHVAVAKRLAARGVKIRPGTVISYIVLKGSGRIGDRAIPADEFDPTKHRYDAEYYIENQVLPAVERILKAFGYRKEDLRYQKTKQVGLGAWLKVKGKK
modifications: 9oN polymerase variant (exo-) with L408V/Y409A/P410L and A485L mutations
B2: YAV: 9° N polymerase (exo-) mutant, motif A region YAV, also A485L; SEQ ID NO: 22 (protein)
chain: B1 chain with V408Y, L410V
modifications: 9oN polymerase variant (exo-) with L408Y/Y409A/P410V mutations
B3: 9° N DM: 9° N (-exo) Y409V/A485L double mutant control polymerase; SEQ ID NO: 15 (protein)
chain: B1 chain with V408L, A409V, L410P
modifications: 9oN polymerase (exo-) with Y409V and A485L mutations
B4: YAS: 9° N polymerase mutant, motif A region YAS, also A485L; SEQ ID NO: 20 (protein)
chain: B1 chain with V408Y, L410S
modifications: 9oN polymerase variant (exo-) with L408Y/Y409A/P410S mutations
B5: FAP: 9° N DM-derived polymerase with amino acids 408-410 FAP (protein, UniProt Q56366 1-775, looked up, variant D141A E143A L408F Y409A A485L)
DNA polymerase: B1 chain with V408F, L410P
B6: CST: 9° N DM-derived polymerase with amino acids 408-410 CST (protein, UniProt Q56366 1-775, looked up, variant D141A E143A L408C Y409S P410T A485L)
DNA polymerase: B1 chain with V408C, A409S, L410T
B7: YST: 9° N DM-derived polymerase with amino acids 408-410 YST (protein, UniProt Q56366 1-775, looked up, variant D141A E143A L408Y Y409S P410T A485L)
DNA polymerase: B1 chain with V408Y, A409S, L410T
B8: AAA: 9° N DM-derived polymerase with amino acids 408-410 AAA (protein, UniProt Q56366 1-775, looked up, variant D141A E143A L408A Y409A P410A A485L)
DNA polymerase: B1 chain with V408A, L410A
B9: FAI: 9° N DM-derived polymerase with amino acids 408-410 FAI (protein, UniProt Q56366 1-775, looked up, variant D141A E143A L408F Y409A P410I A485L)
DNA polymerase: B1 chain with V408F, L410I
B10: CAA: 9° N DM-derived polymerase with amino acids 408-410 CAA (protein, UniProt Q56366 1-775, looked up, variant D141A E143A L408C Y409A P410A A485L)
DNA polymerase: B1 chain with V408C, L410A

Each molecule was assayed on 3′ modified nucleotide (assay: Gel-based incorporation assay of Example 2, two cycles of enzymology on bead-bound 32P-labelled DNA template). Conditions: not given.
Format: biochemical
Experimental: The mutant polymerases were assessed for their ability to incorporate a 3′ blocked nucleotide analogue using a gel-based assay as described in generic form in Example 1. The rates of incorporation of the modified nucleotides were compared to purified forms of related DNA polymerases in both a single round of incorporation and through two rounds of nucleotide incorporation. The DNA template that was used for these experiments was a commercially-synthesised biotinylated oligonucleotide.
The method for two cycles of incorporation involves the binding of the DNA primer-template to streptavidin-coated beads (Dynalbeads). These are prepared as follows: • Resuspend beads in storage pot by pipetting up and down Take 20 μL beads • Wash 3×200 μL TE buffer (10 mM Tris HCl pH 7.5, 1 mM EDTA) Add 50 μL B&W buffer (5 mM Tris HCl, pH 7.5; 1M NaCl, […]) • 25 μL H2O • 25 μL of ^32P-labelled biotin DNA template (final concentration of 100 nM)
The first cycle of enzymatic incorporation is performed on these beads as follows:
Incorporation mix 1 is added to the bead pellet from above.
Reactions are incubated at 45° C. for 15 minutes
The first cycle of enzymology is then deblocked by treatment with tri(carboxyethyl) phosphine (TCEP) as follows:
Add 65 μL TCEP (100 mM) in water and incubate at 65° C. for 15 minutes
After removal of the TE buffer, a second cycle of enzymatic incorporation is then performed by the addition of incorporation mix 2, as follows:
Take 5 μL samples out at ½, 1, 2, 4, 10, 30, 60 mins and add to gel loading buffer with EDTA.
Heat all samples to 95° C. for 10 mins and load 3 μl on a 12% acrylamide gel (Sambrook and Russell, 2001).
Time (mins) to 50% product conversion on second cycle of enzymology at 45° C., 50 mM Tris, pH 8, 4 mM MgSO4, 0.05 (v/v) Tween, 50 μg/ml enzyme, and 2 μM 3′ modified nucleotide. Time to 50% product conversion on first cycle of incorporation shown in parentheses. For other mutants the time to 50% conversion on the first cycle was not measured in these experiments
For B1, the “rate of incorporation of the modified nucleotides compared to the original mutant bearing changes at regions A and B (2E)” value was “enhanced rate of incorporation”.

Same assay, conditions: 45° C., 50 mM Tris, pH 8, 4 mM MgSO4, 0.05 (v/v) Tween, 50 μg/ml enzyme, 2 μM 3′ modified nucleotide; first cycle (in parentheses)
For B2, the “Time to 50% product conversion on first cycle of incorporation” value (shortened to “Time to 50% product conversion”) was “min (5 sec)”. In the case of B3, the “Time to 50% product conversion” value is reported as “no product conversion under these”. For B1, the “Time to 50% product conversion” value was “min (16 sec)”.

Same assay, conditions: 45° C., 50 mM Tris, pH 8, 4 mM MgSO4, 0.05 (v/v) Tween, 50 μg/ml enzyme, 2 μM 3′ modified nucleotide; second cycle
B2 was tested, and the “Time (mins) to 50% product conversion on second cycle of enzymology” value was 1.2 min. B4 was tested, and the “Time (mins) to 50% product conversion on second cycle of enzymology” value was 1.5 min. B5 was tested, and the “Time (mins) to 50% product conversion on second cycle of enzymology” value was 5.5 min. In the case of B3, the “Time (mins) to 50% product conversion on second cycle of enzymology” value is reported as “no product conversion under these”. B6 was tested, and the “Time (mins) to 50% product conversion on second cycle of enzymology” value was 19.5 min. In the case of B7, the “Time (mins) to 50% product conversion on second cycle of enzymology” value is reported as 2.1 min. In the case of B8, the “Time (mins) to 50% product conversion on second cycle of enzymology” value is reported as 6.9 min. With B1 the “Time (mins) to 50% product conversion on second cycle of enzymology” value was 5.2 min. With B9 the “Time (mins) to 50% product conversion on second cycle of enzymology” value was 2.2 min. With B10 the “Time (mins) to 50% product conversion on second cycle of enzymology” value was 15 min.

Same assay, conditions: region A variants, conditions of Example 2
In the case of B2, the “incorporation of 3′ modified nucleotide analogues compared to 9° N DM (Y409V/A485L)” value is reported as “best incorporation rate”. In the case of B4, the “incorporation of 3′ modified nucleotide analogues compared to 9° N DM (Y409V/A485L)” value is reported as “best incorporation rate”. In the case of B1, the “incorporation of 3′ modified nucleotide analogues compared to 9° N DM (Y409V/A485L)” value is reported as “improved incorporation”.

The molecules below were run on 3′ modified nucleotide (assay: Single incorporation method (single cycle of nucleotide incorporation, gel read-out)). Conditions: 3′ O-allyl, 3′ S-methyl and 3′ O-azido methyl; single cycle, 45° C., 2 μM nucleotide; FIG. 3.
Format: biochemical
Experimental: In order to determine whether the modified polymerases described in the previous examples have the capability to incorporate different nucleotide analogues that bear large modifications at the 3′ position of the sugar, three different uracil nucleotide analogues (3′ O-allyl, 3′ S-methyl, and 3′ O-azido methyl) were tested for their ability to be incorporated by two different […] (9° N ED variant polymerase, and 9° N YAV variant polymerase), compared to a control polymerase (9° N DM). A single cycle of nucleotide incorporation was performed at different time intervals using a ‘single incorporation’ method described below.
1. In a clean reaction tube, mix the following components: • 100 nM ^32P-labelled duplex DNA substrate • 50 μg/ml isolated DNA polymerase • 50 mM TrisHCl, pH 8 • 0.05% Tween20 • water to 47 μL
2. incubate the mixture at 45° C.
3. Add 4 mM MgSO4 and 2 μM 3′ modified nucleotide to the reaction mixture from 2, such that the total reaction volume is 50 μL
4. at various time intervals remove 5 μL aliquots from the reaction tube and mix with 5 μL gel loading buffer (described in Example 2)
5. Heat samples and load on acrylamide gels as described in Example 2.
To determine if the DNA polymerases described in previous examples were capable of incorporating 3′ modified nucleotide derivatives of A, G, C and T bases, and also of incorporating such nucleotide derivatives further modified by different fluorescent reporter groups, a single incorporation reaction (as described in Example 3) was performed with the following 3′ O-azido methyl nucleotide derivatives: […]
For B2, the “incorporation of uracil nucleotide analogues with different 3′ modifications” value was “incorporated efficiently”. For B1, the “incorporation of uracil nucleotide analogues with different 3′ modifications” value was “incorporated efficiently”.

Same assay, conditions: each 3′ O-azido methyl nucleotide derivative of Table IV (A, G, C, T; different dyes); 2 μM nucleotide, within 3 minutes, 45° C.
For B1, the substrate conversion was “greater than 90%”.

Same assay, conditions: first cycle, single cycle experiment, 45° C.
With B2 the “concentration of 3′ blocked nucleotide at which incorporation can be measured (as low as)” value was 50 nM.

Source: patent US8460910B2 (Illumina Cambridge Limited, priority 2003, dated 2013)
